{"source": "patent US7494767", "about": "(FUNCTIONAL GENETICS, dated 2009)", "binders": {"B1": {"name": "GAL4 activation domain-Tsg101 fragment 311-C (other)", "chain": "NNDIDEVIIPTAPLYKQILNLYAEENAIEDTIFYLGEALRRGVIDLDVFLKHVRLLSRKQFQLRALMQKARKTAGLSDLY"}, "B2": {"name": "GAL4 activation domain-Tsg101 with Ala for 149Ser-Tyr150 (other)", "chain": "MAVSESQLKKMVSKYKYRDLTVRETVNVITLYKDLKPVLDSYVFNDGSSRELMNLTGTIPVPYRGNTYNIPICLWLLDTYPYNPPICFVKPTSSMTIKTGKHVDANGKIYLPYLHEWKHPQSDLLGLIQVMIVVFGDEPPVFSRPISAAAPPYQATGPPNTSYMPGMPGGISPYPSGYPPNPSGYPGCPYPPGGPYPATTSSQYPSQPPVTTVGPSRDGTISEDTIRASLISAVSDKLRWRMKEEMDRAQAELNALKRTEEDLKKGHQKLEEMVTRLDQEVAEVDKNIELLKKKDEELSSALEKMENQSENNDIDEVIIPTAPLYKQILNLYAEENAIEDTIFYLGEALRRGVIDLDVFLKHVRLLSRKQFQLRALMQKARKTAGLSDLY", "notes": "also called mutation of 149Ser-Tyr150"}, "B3": {"name": "GAL4 activation domain-Tsg101 N-terminal 155-residue fragment (other)", "chain": "MAVSESQLKKMVSKYKYRDLTVRETVNVITLYKDLKPVLDSYVFNDGSSRELMNLTGTIPVPYRGNTYNIPICLWLLDTYPYNPPICFVKPTSSMTIKTGKHVDANGKIYLPYLHEWKHPQSDLLGLIQVMIVVFGDEPPVFSRPISASYPPYQA", "notes": "also called N-155"}, "B4": {"name": "GAL4 activation domain-Tsg101 N-terminal 215-residue fragment (other)", "chain": "MAVSESQLKKMVSKYKYRDLTVRETVNVITLYKDLKPVLDSYVFNDGSSRELMNLTGTIPVPYRGNTYNIPICLWLLDTYPYNPPICFVKPTSSMTIKTGKHVDANGKIYLPYLHEWKHPQSDLLGLIQVMIVVFGDEPPVFSRPISASYPPYQATGPPNTSYMPGMPGGISPYPSGYPPNPSGYPGCPYPPGGPYPATTSSQYPSQPPVTTVGP", "notes": "also called N-215"}, "B5": {"name": "GAL4 activation domain-Tsg101 fragment 241-C (other)", "chain": "RMKEEMDRAQAELNALKRTEEDLKKGHQKLEEMVTRLDQEVAEVDKNIELLKKKDEELSSALEKMENQSENNDIDEVIIPTAPLYKQILNLYAEENAIEDTIFYLGEALRRGVIDLDVFLKHVRLLSRKQFQLRALMQKARKTAGLSDLY"}, "B6": {"name": "GAL4 DNA-binding domain-p1-p6 fusion protein (other)", "chain": "MKLLSSIEQACDICRLKKLKCSKEKPKCAKCLKNNWECRYSPKTKRSPLTRAHLTEVESRLERLEQLFLLIFPREDLDMILKMDSLQDIKALLTGLFVQDNVNKDAVTDRLASVETDMPLTLRQHRISATSSSEESSNKGQRQLTVSGKIWPSYKGRPGNFLQSRPEPTAPPFLQSRPEPTAPPEESFRSGVETTTPPQKQEPIDKELYPLTSLRSLFGNDPSSQ", "notes": "also called pGBT9-p1p6; Gag^p6"}, "B7": {"name": "GAL4 DNA-binding domain-p1-p6 K493R (other)", "chain": "B6 chain with K206R"}, "B8": {"name": "GAL4 DNA-binding domain-p1-p6 K487,493R (other)", "chain": "B6 chain with K200R, K206R"}}, "key": {"[1]": {"target": "B6", "test": "yeast 2-hybrid"}, "[2]": {"target": "B6", "test": "yeast 2-hybrid, β-galactosidase; Tsg101 variant with p1-p6"}, "[3]": {"target": "T1, GAL4 activation domain-Tsg101 N-terminal 311-residue fragment (yeast; human, UniProt Q99816 1-311)", "T1 construct": "also called N-311", "T1 sequence": "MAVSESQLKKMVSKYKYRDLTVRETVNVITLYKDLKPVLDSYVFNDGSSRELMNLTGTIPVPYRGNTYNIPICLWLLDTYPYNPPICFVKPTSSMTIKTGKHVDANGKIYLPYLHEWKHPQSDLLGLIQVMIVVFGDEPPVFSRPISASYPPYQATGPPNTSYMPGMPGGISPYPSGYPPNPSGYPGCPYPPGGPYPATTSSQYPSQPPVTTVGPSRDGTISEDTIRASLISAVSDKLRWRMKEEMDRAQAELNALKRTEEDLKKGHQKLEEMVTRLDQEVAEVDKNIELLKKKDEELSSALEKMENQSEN", "test": "yeast 2-hybrid"}, "[4]": {"target": "T2, GAL4 activation domain-Tsg101 fragment from aa139 to the C-terminus (yeast; human, UniProt Q99816 139-390)", "T2 construct": "also called 139-C", "T2 sequence": "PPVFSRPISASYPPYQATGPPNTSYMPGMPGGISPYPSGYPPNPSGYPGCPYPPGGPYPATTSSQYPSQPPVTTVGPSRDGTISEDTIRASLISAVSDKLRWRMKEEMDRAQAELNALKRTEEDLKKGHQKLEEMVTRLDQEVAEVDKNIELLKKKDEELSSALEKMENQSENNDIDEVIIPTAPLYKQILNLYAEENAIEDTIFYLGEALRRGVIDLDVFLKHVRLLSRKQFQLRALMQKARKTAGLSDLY", "test": "yeast 2-hybrid"}, "[5]": {"target": "T3, GAL4 activation domain-Tsg101 fusion protein (wild-type human Tsg101) (yeast; human, UniProt Q99816 1-390)", "T3 construct": "also called hTsg101; product of the human tumor susceptibility gene Tsg101", "T3 sequence": "B2 chain with A149S, A150Y", "test": "yeast 2-hybrid, LacZ reporter"}, "[6]": {"target": "T3, GAL4 activation domain-Tsg101 fusion …", "test": "yeast 2-hybrid, β-galactosidase; p1-p6 variant with Tsg101"}}, "note": "Changes are numbered by the printed parent chain. Numbers in names are those of the source.", "data": [{"binder": "B1", "values": [{"measurement": "binding result", "setting": "[1]", "result": "no binding"}]}, {"binder": "B2", "values": [{"measurement": "binding result", "setting": "[2]", "result": "binds"}]}, {"binder": "B3", "values": [{"measurement": "binding result", "setting": "[1]", "result": "binds"}]}, {"binder": "B4", "values": [{"measurement": "binding result", "setting": "[1]", "result": "binds"}]}, {"binder": "B5", "values": [{"measurement": "binding result", "setting": "[1]", "result": "no binding"}]}, {"binder": "B6", "values": [{"measurement": "binding result", "setting": "[3]", "result": "binds"}, {"measurement": "binding result", "setting": "[4]", "result": "no binding"}, {"measurement": "binding result", "setting": "[5]", "result": "binds"}]}, {"binder": "B7", "values": [{"measurement": "binding result", "setting": "[6]", "result": "binds"}]}, {"binder": "B8", "values": [{"measurement": "binding result", "setting": "[6]", "result": "binds"}]}]}
